Columns and labels:
[1] = target: RNF167-ECD (transmembrane PA-TM-RING E3 ligase RNF167, extracellular domain) (human) (UniProt Q9H6Y7); assay: SPR; Biacore T100; biotinylated ligand captured on a streptavidin (SA) Series S chip (~100-200 RU); non-biotinylated analyte in twofold dilutions in HBS-P+; 60 s injection at 30 ul/min, 240 s dissociation; regeneration 2 x 10 sec 2M MgCl2; KD from the fit at equilibrium (steady state)
[2] = target: T1, growth arrest specific 1 protein (human, UniProt P54826 40-317, biotin (biotinylated in vitro with BirA) where used on beads or as tetramer); assay: SPR; Biacore T100; biotinylated receptor ECD or hit protein captured on a streptavidin chip (~100-200 RU), non-biotinylated secreted ligand as analyte in twofold dilutions; HBS-P+ buffer; 1:1 Langmuir model or equilibrium fit; details: both partners purified
T1 construct: growth arrest specific 1, human; also called GAS1; source: Expi293F, purified (Ni-NTA, SEC); not shown: AviTag, C-terminal, kept
T1 sequence (looked up): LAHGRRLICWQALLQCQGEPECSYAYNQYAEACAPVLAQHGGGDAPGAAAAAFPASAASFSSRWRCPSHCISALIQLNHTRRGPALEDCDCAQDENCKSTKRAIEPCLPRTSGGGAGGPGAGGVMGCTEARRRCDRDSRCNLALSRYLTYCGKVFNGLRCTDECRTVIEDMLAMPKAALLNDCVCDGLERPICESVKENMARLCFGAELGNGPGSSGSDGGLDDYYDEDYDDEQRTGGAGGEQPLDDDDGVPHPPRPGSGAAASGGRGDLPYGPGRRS

[3] = target: T2, human PTPRU-ECD (human, UniProt Q92729 19-749, biotin where captured on the streptavidin chip); assay: SPR
T2 chain: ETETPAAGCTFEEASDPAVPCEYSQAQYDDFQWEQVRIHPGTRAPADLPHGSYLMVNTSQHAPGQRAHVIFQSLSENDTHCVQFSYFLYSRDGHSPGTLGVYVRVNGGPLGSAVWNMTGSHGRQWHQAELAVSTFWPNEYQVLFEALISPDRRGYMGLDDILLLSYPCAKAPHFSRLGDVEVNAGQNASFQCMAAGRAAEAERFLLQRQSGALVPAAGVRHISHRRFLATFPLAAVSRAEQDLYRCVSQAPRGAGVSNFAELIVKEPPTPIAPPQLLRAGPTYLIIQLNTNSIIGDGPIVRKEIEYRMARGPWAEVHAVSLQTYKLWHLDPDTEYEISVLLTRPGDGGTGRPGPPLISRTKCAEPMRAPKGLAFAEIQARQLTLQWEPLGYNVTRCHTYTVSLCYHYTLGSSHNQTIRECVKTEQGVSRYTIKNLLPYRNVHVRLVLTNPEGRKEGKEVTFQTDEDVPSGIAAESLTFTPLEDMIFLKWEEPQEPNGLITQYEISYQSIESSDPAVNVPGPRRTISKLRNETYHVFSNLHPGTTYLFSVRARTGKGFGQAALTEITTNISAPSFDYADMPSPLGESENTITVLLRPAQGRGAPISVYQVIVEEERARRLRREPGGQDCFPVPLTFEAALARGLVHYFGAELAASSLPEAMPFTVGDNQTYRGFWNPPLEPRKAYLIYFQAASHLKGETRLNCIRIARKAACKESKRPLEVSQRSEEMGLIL

[4] = target: T3, human PTPRU-ECD (human, UniProt Q92729 19-749, biotin where captured on the streptavidin chip); assay: SPR; Biacore T100; biotinylated receptor ECD or hit protein captured on a streptavidin chip (~100-200 RU), non-biotinylated secreted ligand as analyte in twofold dilutions; HBS-P+ buffer; 1:1 Langmuir model or equilibrium fit; details: both partners purified
T3 construct: PTPRU, human, extracellular domain; construct of the ECD is not described; source: Expi293F, purified (Ni-NTA, SEC)
T3 sequence (looked up): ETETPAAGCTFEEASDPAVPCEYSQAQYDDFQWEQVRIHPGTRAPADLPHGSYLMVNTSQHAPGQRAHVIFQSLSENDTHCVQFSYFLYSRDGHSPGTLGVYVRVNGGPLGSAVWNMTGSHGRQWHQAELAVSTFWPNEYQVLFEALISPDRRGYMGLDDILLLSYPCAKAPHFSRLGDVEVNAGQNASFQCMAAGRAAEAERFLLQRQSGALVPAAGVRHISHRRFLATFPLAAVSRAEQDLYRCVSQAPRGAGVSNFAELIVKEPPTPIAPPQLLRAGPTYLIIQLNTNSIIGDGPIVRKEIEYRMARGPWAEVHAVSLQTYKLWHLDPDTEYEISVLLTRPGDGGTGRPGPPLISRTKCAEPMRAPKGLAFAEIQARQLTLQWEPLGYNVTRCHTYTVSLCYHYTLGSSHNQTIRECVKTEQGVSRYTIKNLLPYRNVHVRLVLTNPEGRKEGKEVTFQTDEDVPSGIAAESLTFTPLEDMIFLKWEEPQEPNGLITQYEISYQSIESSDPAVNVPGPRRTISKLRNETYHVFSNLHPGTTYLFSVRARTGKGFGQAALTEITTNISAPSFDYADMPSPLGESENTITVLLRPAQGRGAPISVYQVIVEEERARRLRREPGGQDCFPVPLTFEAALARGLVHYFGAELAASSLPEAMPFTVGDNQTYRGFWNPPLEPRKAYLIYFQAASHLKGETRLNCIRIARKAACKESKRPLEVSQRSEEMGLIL

Molecule: TAFA-2 (FAM19A2; chemokine-like family member 2) (from UniProt Q8N3H0 31-131) (ligand)
- Kd [1]: 314000 nM

B1: PTPRA-ECD (domain or fragment, human, UniProt P18433 20-151, looked up)
chain: NNATTVAPSVGITRLINSSTAEPVKEEAKTSNPTSSLTSLSVAPTFSPNITLGPTYLTTVNSSDSDNGTTRTASTNSIGITISPNGTWLPDNQFTDARTEPWEGNSSTAATTPETFPPSGNSDSKDRRDETP
modifications: biotin (captured on the streptavidin chip)
notes: PTPRA, human, extracellular domain; construct of the ECD is not described; source: Expi293F, purified (Ni-NTA, SEC)
- Kd [2]: ~1000 nM

B2: Osteocrin (ligand, human, UniProt P61366 28-133, looked up)
chain: VDVTTTEAFDSGVIDVQSTPTVREEKSATDLTAKLLLLDELVSLENDVIETKKKRSFSGFGSPLDRLSAGSVDHKGKQRKVVDHPKRRFGIPMDRIGRNRLSNSRG
modifications: biotin (biotinylated in vitro with BirA) where used on beads
notes: Osteocrin, human; also called OSTN; Musclin; source: Expi293F, purified (Ni-NTA, SEC); not shown: AviTag, C-terminal, kept
- koff [3]: 0.0036 s⁻¹
- Kd [4]: ~12 nM
